We go through 1 substance from article PMC10934500, “Exploring the Anti-Diabetic Potential of Quercetagitrin through Dual Inhibition of PTPN6 and PTPN9” (Nutrients, 2024).

For this data set, the system named is Cc1cc(=O)oc2c(F)c(OP(=O)(O)O)c(F)cc12. Description: Michaelis-Menten kinetics (KM) with purified enzyme, fluorescence. The format is biochemical, Homo sapiens.

What is called Km is the concentration of substrate that gives half-maximal velocity. Broadly, the Vmax is the top rate of the reaction or transport when substrate is in excess. In general, kcat refers to the maximal rate divided by the concentration of active sites. For orientation: kcat/Km means the turnover number divided by the Michaelis constant. As to PTPN6 (Homo sapiens), the Km is 187.5 µM, the Vmax was 10.8 µM/min, the kcat turned out to be 30 s⁻¹ and the kcat/Km turned out to be 162000 M⁻¹ s⁻¹.
